From paper PMC6340302 (ACS chemical biology, 2018)
Like-named read-outs stand apart in the source and are kept apart here.

What was measured:
dbOphMA [1] = biological target: T1, dbOphMA (Dendrothele bispora, UniProt A0A4S8L4Q5); test: microscale thermophoresis; format: binding
T1 sequence (A0A4S8L4Q5 1-377): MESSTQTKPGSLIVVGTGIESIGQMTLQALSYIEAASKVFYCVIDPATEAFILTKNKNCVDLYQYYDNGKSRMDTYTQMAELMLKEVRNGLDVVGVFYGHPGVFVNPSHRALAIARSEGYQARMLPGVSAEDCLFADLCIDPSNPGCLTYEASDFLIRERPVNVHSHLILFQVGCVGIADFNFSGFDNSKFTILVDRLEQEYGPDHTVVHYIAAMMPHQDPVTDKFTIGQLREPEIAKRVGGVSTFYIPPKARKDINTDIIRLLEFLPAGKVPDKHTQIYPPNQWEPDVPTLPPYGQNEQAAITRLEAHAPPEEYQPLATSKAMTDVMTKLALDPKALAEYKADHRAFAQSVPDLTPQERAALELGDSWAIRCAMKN

[2] = biological target: dbOphMA, methyltransferase-precursor fusion protein from Dendrothele bispora CBS 962.96, full-length fusion (residues Met1-Ala417) (Dendrothele bispora CBS 962.96)
[3] = biological target: dbOphMA, methyltransferase-precursor fusion protein from Dendrothele bispora CBS 962.96, full-length fusion (residues Met1-Ala417) (Dendrothele bispora CBS 962.96); test: crystal structure
[4] = biological target: dbOphM, the catalytic component of dbOphMA (Met1-Asn377), which lacks the precursor peptide (Dendrothele bispora CBS 962.96); test: crystal structure
dbOphMA [5] = biological target: T1, dbOphMA; test: microscale thermophoresis; format: binding; remark: listed apart in the source

## C[S@@+](CC[C@H](N)C(=O)O)C[C@H]1O[C@@H](n2cnc3c(N)ncnc32)[C@H](O)[C@@H]1O [SAM, S-adenosyl methionine]
dbOphMA [1]
  Kd: 80.7 µM

## dbOphMA, methyltransferase-precursor fusion protein from Dendrothele bispora CBS 962.96, full-length fusion (residues Met1-Ala417) (enzyme)
[2]
  stoichiometry N: 2
[3]
  stoichiometry N: 2

## dbOphM, the catalytic component of dbOphMA (Met1-Asn377), which lacks the precursor peptide (domain or fragment)
[4]
  stoichiometry N: 2

## Nc1ncnc2c1ncn2[C@@H]1O[C@H](CSCC[C@H](N)C(=O)O)[C@@H](O)[C@H]1O [SAH, S-adenosyl homocysteine]
dbOphMA [5]
  Kd: 6.88 µM
